# According to article PMC4257719:
# Target: P. berghei SPECT1Δ41 (amino acids 42-241) (P. berghei)
# Assay: SEC-MALS; TSK-Gel G3000 SWxl column with multiangle static light scattering; 150 mM NaCl, 50 mM Tris or HEPES, pH 7.4; monomer and dimer fractions run separately; the two species are stable over days
substance,measurement,value
P. berghei SPECT1Δ41 (amino acids 42-241) (domain or fragment),stoichiometry N,2
